Drawing on a protein production outcome set (Wang et al. 2014), this text covers protein production for 17 sequences.

The series can be described thus: label from the status in PepcDB records.
As to “MGGDKIDLYKRFSILFCTIFLLLILQGTVAAESNYTVDYSTYLGDKVVDEARDVYVDDSGYIYVTGSTHVNGSKDVFVTKFNVTREVIYHTILTDTSGDDWGHRIVADGDGYAYVVGEINHDGLKVADAFISKIDPSGKEVKRVYIGGSGYDVAKGLAIDYEGNIYVSGYTISTVLNVSELGGGTARVPGTNPNATPLTDWTYHGGYDAFLARFDQDLNPVNLRYFGGSWDDYCQGIAIDYAGNIYITGYTYSDDFPVTFDAISGDKRGTTDIFLSRFTPDLNCDYSTYLGGSGPDFCYSIISRDSRIYLAGKTNSSDFPVTPNAYQKTRNGSSDGFIMVFNDYSVEYSTYLGGRGDDSINDITQDILGNLYLTGWTGSDNFPLTPGAYDSSLSGVDAFVMKFSIPKGVLYSSYLGGIEADQGYGVAVDRYQNIYVAGKTWSSNFTVTPDACKKNLTGLSDGFLTRFTPFIISNISVTPLNGTGPLTVTLRGNITNCGDSTGWYRLDLYINGYRTAGKWVEVGSLETEPFEFEYTLRNSRAYSVGVNNFPPATVRVFLGPLIIPENLRVTPSGGQEPLKVNVTADLVNYGDLPDSYTAELYIDGVLLDSRNVTVNASSRTTVSFNRTLAAGLYEITINDLEPELVYVMEGEKFYIENFTLTPQSGAAPLTVTVSAMITNIDSNPRSYTATIYVNGVPDHTKVLNIPGESTVPFSTSILLPDRGLYTISLNNNVSGTVRVLSEANFTLSNVTVSPVEGKSPLNVTVTAIVRNNGDLAGDFAVTLYLDDVAWETRTVSVPGKSSVLVSFKKELAFPGEYRLRLNSGTDVTIRVLEPDPTITGFNVTPVTGPAPLSVRASLNVTNPHDLVIGFTARLMVDGVVVQENIVSLSPGETREIAMGTLLTPGNHTVGINEFSKIVRVLRPASITLSDLRVTPSSGFSPLTITATATARNTGEVDGNYTAVLYINGLAVDEKNVTVGAGRSVQVAFNHTIENAGIYLAGIGSLTPLDVRVLSEPAISNLSATPLTGVSPHRIIVTALVSTTEEGSGNYTAGLYIDGVNVQNRTVRVTGPGSVLVSFTADISEPGEHQVTVNSLSPVTVRVLRPATFIVDSLTVSPSTGVIPFRVNASVRVTNIGDIAGNYTARLYIDGVNVQNRTVNVPAGGDVTVSFTYNITQRGNHTVWIDNPPGINVNALKPATLEIRSFSVTPGSAVGSVNANVSAEIENSGDLEGEFSIPFYLNGSLIRNETIRLGPGERGNINFQQYLSGPGVYTFSLGNLRNSTVYVNPARRKYSFTFRNTGKYTTTVTYYVTVYSSTGAKLGYRTFKFTLKPGRSYSATIGYYPYDARIVTTRKIYNPSRYTRTIKLSETFRADTLSATLNYSNTIRGYRYVYIKKTFRAVNMRITVT”, the protein production result is reported as “failed”.

For “MFGQWEFDVSPTGGIAVASTEVEHFAGSQHEVDTAEVPSAAWGWSRIDHRTWHIVGLCIFGFLLAMLRGNHVGHVEDWFLITFAAVVLFVLARDLWGRRRGWIR”, the protein production result was “failed”. As to “MAIQLKKGNRISLKKEAPGLKKVMLGLGWDMATSSSGGGFFGIFKKPAGSIDLDSGVLCLDSQGKLNSASDFVYYANLNHKSGAIAHQGDNLTGAGEGDDEQIFVDLEQVPATIQSLLFTVTIYQGRQRGQEFGQIKNAFVRLVDLSNNQEIAHYKLSGETYQGKTGMLMAELRREENGWAMTALGDGLDPQDSENLLKKYR”, the protein production entry is given as “failed”. As to “SLPHCETLLLEPIEGVLRITLNRPQSRNAMSLAMVGELRAVLAAVRDDRSVRALVLRGADGHFCAGGDIKDMAGARAAGAEAYRTLNRAFGSLLEEAQAAPQLLVALVEGAVLGGGFGLACVSDVAIAAADAQFGLPETSLGILPAQIAPFVVRRIGLTQARRLALTAARFDGREALRLGLVHFCEADADALEQRLEETLEQLRRCAPNANAATKALLLASESGELGALLDDAARQFAEAVGGAEGS”, the protein production result is reported as “failed”.

As for “MNIRHIRNATAVIEYGGKRILIDPMLSDKGSFDPFPNSPRQDQKNPLVELPMAIEDIINDIDLVILTHLHIDHFDPKAIEVLPKDIKIYAQNEEDASEVERYGFTNVSVFNDVTHIGEIELIKTDAQHGHGEILKMTGHVHGMILKHSEEPTLYLAADTVWFEGVEKALKTYQPDVVVLNGGANQFFEGGPLVMDEHDVLKVANTLPLAQIVVVHMEAVNHWHLSRKELNEFINSNDLGNRVVVPNDGELLTFEK”, the protein production entry is given as “failed”. Then “MSRFRSLLQASVNATKKALTWNVEEWVPPAEKHIFKFHSKEDLKKWHLYSDSEYGGLSSASLEIPDKGDGSDCTGVFSGNLSVDLSEGSKWNISRSGFCGMRSKKFDGFIDLDGYDAIALRIRGDGRCYISTIYTENWVNSPGQSEDNSWQAFVFAPKDSWYTAKIPLARYLPTWRGNVIDVEMEMNPGRVLGMSLSVNAEGGAVGAKSGAGDFRVEIDWIKALRLP”, with “failed”. Then “MTDESSVRTPKALPDGVSQATVGVRGGMLRSGFEETAEAMYLTSGYVYGSAAVAEKSFAGELDHYVYSRYGNPTVSVFEERLRLIEGAPAAFATASGMAAVFTSLGALLGAGDRLVAARSLFGSCFVVCSEILPRWGVQTVFVDGDDLSQWERALSVPTQAVFFETPSNPMQSLVDIAAVTELAHAAGAKVVLDNVFATPLLQQGFPLGVDVVVYSGTKHIDGQGRVLGGAILGDREYIDGPVQKLMRHTGPAMSAFNAWVLLKGLETLAIRVQHSNASAQRIAEFLNGHPSVRWVRYPYLPSHPQYDLAKRQMSGGGTVVTFALDCPEDVAKQRAFEVLDKMRLIDISNNLGDAKSLVTHPATTTHRAMGPEGRAAIGLGDGVVRISVGLEDTDDLIADIDRALS”, with “not failed”. Then “MARPAKLAKISDLFCCTTCPAIDDTCVAPCEGEAPQPFQLHDIPCPPGLHTNLIEPPDMTQNIYDDPIFFQAYSQMGRSLGGLDAAPEWPALQALLPPMNGLRVLDLGCGYGWFSRWASEHGARQVVGLDVSQKMLATARATTSAPNVQYQQEDLEQLRLPACSFDLAYSSLALHYIKDLPGLFAQVYAALVPGARLVFSIEHPIFMAPRNPGWQVDAQGRQSWPVDSYQQEGERVTDWLAEGVIKQHRTLGTLLNTLIDTGFNLRHVQEWGPTAQQIEDLPALAEERERPMLLLVAAQR”, with “failed”; and “EAPLLYGDSSPEIVLVGHGSTYGVIKEIVDIFSKDKKIAMMHFSQIYPFPERDRFDYIEFLKNANLVISVENNATGQFAKLMRAETGFEFARQILKYDGRPFTIEKLKEEIDAC”, with “not failed”.

As for “MKKLIIAALGLTLILSGCAPKLDSNDKVVQKDDKKAETGIMTKNQISSNYYKTVLPYKASKSRGLVVSNIYSRYDINELESGLMRVSQNKYSPDNYLFQEGQYLDKETLEKWLDRKSEKNPNGLNPESNGDGKDRKPIYLAHILEQDYLKQTDKDTVALGGISIALAMNSVDYYQKEQYGDTFEQEISDSDLLAQGKEMSGTVLNRIRQTKGLENVPVTIAIYKQGPRDAVAPGNFLTYATANGDSLSSWKDVEEKNYVLPSTESAKDHKTDNDNFLNFKKAIEDYYPNFTGVVGRARYEDGQLAELSIDIPLQFYGQAEIIGFTQYVTDLVGQHIPKTADLQVNISTSDGPAALITRKANEDAATAHIYD”, the protein production result is “failed”. As to “MNRDLPVLRALRSLPDKVVGEALVSNDAISMRYDVDASTGKVVRPSHDLYGQSISGKVLIFKNTKGGVATGWALLNLKSRGTAPIALVCDTTNPVFVQGAALAGLPIMDGFRESPRSAVRTGDVVELDGISGELKVLRRGAGGQLEHHHHHH”, the protein production result was “failed”. Take “MILDEKNRKNLVFLILQFFDEEGYEESLHLLEQDSGVFFDFSYLSNAILNGNWKDADDYLSAFTSPEANTFSRKMFFGLFKSGGSEAVKIFSKDLRRIPVLKDDSFDDLVEVIAETCCVDKAPGRAKLCVDLHKLAESNPSLRGKLDFPSLNKSALLALISLLCPNCSRRKGGLKEDLICLILQFLYEAKYKNTLHKLEQETKVFFNLNYLAEVMKLGEYGKAEEYLGAFTNWEDNKYSKAMFLELQKLICLQSTEWEVATPSGSLDNMSLKIKLHASVAMLAKKNPVLKDELKFPSMEKSRLLTLVKQTMDWWTCNNTSSLENVPVVSYLCGTPSSMKFFFKKTVPRKKKPNEIKDPSQCNALVLPDCFSEEKIARLTYSPSGDYILALAEDATHKLWTWSSSQNEFCKPRLHQPQSGKTMENEMATSVQKSTSCFAVKGSYLFSTSGGKIAVFDLKNFEKVASFGSPTPMATYFIFIPGDLLAVGLDDGSIFIHCLSSRKVKEKLEGHDQKITCLAFSRCFNVLVSSDSDGKLCLWSTKSWVKLTSKNSTRKFCNRSNLESTSLVTHIQFDPYQIELLVVHDGWIGLYEVRTLDCRLQWIPDASDPAITSATYSSDGEIIYVGFRCGSIKIVDSKTFMTLCQINLTSFTQLSTSNISLEVYPTVVAAHPSHPNQISAGLSNGKVIVLQPLWSGGWGEAAPLEDNGDYSNDSDHSY”: the protein production entry was “failed”. Then “LPVILWFLAHGLDVVFIDYPRDPATGVQYYCDSIAAAKSLLDAVLASRQLGLSPEAPLGLWGFSQGGGATGWAAQLQDYAPDVRPKAAVVGAPPVDLFRVLDTVDGGLLTGVIAYAIAGLAVNSSEMFEEIMSVLNERGVSDVLKNITSCAGGSLLASGYSSSRGWTHQGTPLADILDDLPLVVAEFGKQKLGRVAPEIPVLLWGSKNDDVIPIDPIRELRDSWADKGTPLTWHESQAPRVPGRTGLNHFGPYFRNLEKYSGWLIDHL”, with “failed”. Turning to “MDNVELSPATRWGMIATGLLQGLVCYLLIAWLSGKNHSWIVYGVPATVAFSSVLLFSVISFKQKRLWGWLALVFIATLGMSGWLKWQTDGMTPWRAEKALWDFGCYLLLMAMLLLPWIQQSLRIRNDSSRYRYFYQSVWHNVLILLVIFLANGLTWLVLLLWSELFKLVGITFFKTLFFATDWFIYLTLGLVTALAVILARTQSRLIDSIQKLFTLIATGLLPLVSLLTLMFIITLPFTGLSAISRHISAAGLLLTLAFLQLILMAIVRDPQKASLPWTGPLRCLIKTALLVAPLYVFIAAWALWLRVAQYGWTVDRLQGALAVLVLLVWSLGYFVSIVWRKGQNPLVLQGKVNLAVSLLVLVILVLLNSPVLDSMRISVNSHMARYQSGKNTPDQVTIYMLEHSGRYGRAALESLKSDAEYMKDPKRARDLLMALDGEQHLQQQISEKVLAENVLIAPGSGKPDATFWSALIQDRYNVMTCIEKDACVLVEQDLNSDGRAERILFAFDDERYIVYGFDPDKKEWQELTMSLLPRDITKEKLLTAAKDGKLGTKPKAWRDLVVDGERLDVNLNE”, the protein production entry was “failed”. Take “MNRVKDKRLWLSIVGITGLGLLSGLFSVNAREYYQALRLPSFAPPGWLFGPVWLVLYIFMGITFYFILVHPNKQQKKRMITLFILQFIANFFWTFFFFSLQNNLLSVIDISLLWLLLIIQQWDYLRYKLITRGWLMIPYILWVTFAAALNYSILFLN”: the protein production result is recorded as “not failed”. As for “MLHKVVQVRLYPSIEQKVQLAQAFGCSRWWWNYALNKSIETYKETGKGLTRAALNALLPNLKKAEDTCWLADCYSQVLQATTLNLTTAYKNFFEKRAGFPKFKSKHGKQSIQYPQNVKIVDGESSPVRAASRREGGFPSVGNWRSRSVSEGFTRKGNIKLPGNIGIVKAKIHRPIEGKIKTVTVSKTPSGKYLASILTEVEGVSTPLNTSEKPAITEGKIYGIDLGLKHFAVVSDGEKISKYDNPKHLAKHEKNLKRKQKKLARKVKGSNSRNRYRKVVAKVYERVSNSRQDFLHKLSYKLVSDSQAVIVENLHLLGMVRNHKLAKSISDAGWGMFTNFLAYKLERKGGKLVEIDRWFPSSKLCSNCFYQIGEMPLDVREWTCPSCGTHHDRDGNAAINIRAEGIRMIKAEGSAVSAVGGEVSPKLGRKSKFGHSPVITEADTVLGTPSQCG”, the protein production result is reported as “failed”. For the sequence “MTLLRVGGVPEPFNEIFMQAQEGALPSTKLQVEFLGVAGGSGAALEMLAKCELDVAVTLTESAVARTKAAASGLAVHSVYVASPLAWGVAVSSKKTDWTDLNSLDAAVLRGESIRAGFSRRGSGSHLLLSVFASDRGWISTGIQNDILKSFECGSFDGLIQAAVAGDIDMFLWETCFTKECAATRQGLIRLVGEYAPSWPAFVLVCRDDAHVRAAVSELKREIEPLQRKFCTGEGLDILQNKYGFSLESAKLWLSRLQFAEPDEALSAEQWRSVERALELTAGSRSSSR”, the protein production result is given as “not failed”.
